Reference: IntAct's records for PubMed 10946006

B1: Microsomal triglyceride transfer protein large subunit (Homo sapiens), P55157 (parent)
chain: MILLAVLFLCFISSYSASVKGHTTGLSLNNDRLYKLTYSTEVLLDRGKGKLQDSVGYRISSNVDVALLWRNPDGDDDQLIQITMKDVNVENVNQQRGEKSIFKGKSPSKIMGKENLEALQRPTLLHLIHGKVKEFYSYQNEAVAIENIKRGLASLFQTQLSSGTTNEVDISGNCKVTYQAHQDKVIKIKALDSCKIARSGFTTPNQVLGVSSKATSVTTYKIEDSFVIAVLAEETHNFGLNFLQTIKGKIVSKQKLELKTTEAGPRLMSGKQAAAIIKAVDSKYTAIPIVGQVFQSHCKGCPSLSELWRSTRKYLQPDNLSKAEAVRNFLAFIQHLRTAKKEEILQILKMENKEVLPQLVDAVTSAQTSDSLEAILDFLDFKSDSSIILQERFLYACGFASHPNEELLRALISKFKGSIGSSDIRETVMIITGTLVRKLCQNEGCKLKAVVEAKKLILGGLEKAEKKEDTRMYLLALKNALLPEGIPSLLKYAEAGEGPISHLATTALQRYDLPFITDEVKKTLNRIYHQNRKVHEKTVRTAAAAIILNNNPSYMDVKNILLSIGELPQEMNKYMLAIVQDILRFEMPASKIVRRVLKEMVAHNYDRFSRSGSSSAYTGYIERSPRSASTYSLDILYSGSGILRRSNLNIFQYIGKAGLHGSQVVIEAQGLEALIAATPDEGEENLDSYAGMSAILFDVQLRPVTFFNGYSDLMSKMLSASGDPISVVKGLILLIDHSQELQLQSGLKANIEVQGGLAIDISGAMEFSLWYRESKTRVKNRVTVVITTDITVDSSFVKAGLETSTETEAGLEFISTVQFSQYPFLVCMQMDKDEAPFRQFEKKYERLSTGRGYVSQKRKESVLAGCEFPLHQENSEMCKVVFAPQPDSTSSGWF
partner: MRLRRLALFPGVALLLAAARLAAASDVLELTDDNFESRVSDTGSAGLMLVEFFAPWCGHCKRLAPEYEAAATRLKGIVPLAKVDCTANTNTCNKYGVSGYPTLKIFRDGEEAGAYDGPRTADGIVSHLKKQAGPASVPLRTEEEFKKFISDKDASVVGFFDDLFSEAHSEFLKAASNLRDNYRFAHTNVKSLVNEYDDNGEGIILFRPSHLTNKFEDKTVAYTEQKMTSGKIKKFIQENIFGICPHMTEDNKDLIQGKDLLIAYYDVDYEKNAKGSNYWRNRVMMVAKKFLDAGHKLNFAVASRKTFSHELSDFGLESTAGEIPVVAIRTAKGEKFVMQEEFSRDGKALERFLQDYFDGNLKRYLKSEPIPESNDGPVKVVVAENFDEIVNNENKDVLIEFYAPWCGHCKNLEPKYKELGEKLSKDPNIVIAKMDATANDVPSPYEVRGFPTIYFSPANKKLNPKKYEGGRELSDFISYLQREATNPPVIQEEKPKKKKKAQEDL

Variants of: B1
Conditions: with pdia3_chlae PDIA3, Q4VIT4

Row | Variant | effect of a mutation on the interaction
1 | N780Y | with no effect
